As usually defined, the IC50 is the concentration at which inhibition is half-maximal. Low readings indicate inhibition by little substance, high ones a need for much substance.

Test [1] deals with T1, C3aR (Homo sapiens, UniProt Q16581).
T1 construct: expressed in transfected cells
T1 sequence (Q16581 1-482): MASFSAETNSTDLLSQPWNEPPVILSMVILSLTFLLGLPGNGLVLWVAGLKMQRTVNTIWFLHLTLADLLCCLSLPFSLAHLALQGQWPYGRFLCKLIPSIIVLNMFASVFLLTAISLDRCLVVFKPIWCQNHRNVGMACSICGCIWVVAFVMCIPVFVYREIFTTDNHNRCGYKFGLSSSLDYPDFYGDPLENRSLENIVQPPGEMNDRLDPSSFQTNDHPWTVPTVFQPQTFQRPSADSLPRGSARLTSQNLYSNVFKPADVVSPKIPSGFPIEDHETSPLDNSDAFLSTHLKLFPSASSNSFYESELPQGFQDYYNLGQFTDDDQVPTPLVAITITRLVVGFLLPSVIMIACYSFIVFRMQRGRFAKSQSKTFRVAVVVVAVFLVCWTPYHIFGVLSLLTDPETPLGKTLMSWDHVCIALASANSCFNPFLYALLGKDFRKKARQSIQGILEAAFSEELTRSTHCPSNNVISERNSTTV
Put plainly: Radiolabelled ligand competition receptor binding, C3aR-transfected RBL cells. The following applies: C3aR expressed in RBL cells; competition binding. From the text:
(§1) C5L2, C3aR and CD88-transfected RBL cells were produced as described (17). G16 was cloned from human monocytes mRNA and authenticated by sequencing. Human G16 and either C5L2 or CD88 were ligated into the bicistronic expression vector pIRES (Qiagen). Stable transfection of RBL-2H3 cells with pIRES constructs was achieved by electroporation (18). Cells underwent three rounds of fluorescence-activated cell sorting using anti-CD88 antibody (clone S5/1; Serotec) or anti-hemagglutinin peptide antibody (Roćhe Molecular Biochemicals, clone 12CA5), selecting the top 5% of receptor-positive cells in each round.
(§2) Competition binding assays were performed using 50 pM ^125I-C5a or ^125I-C3a (NEN) on adherent C5aR-transfected or C5L2-transfected RBL cells in 96-well microtiter plates (55 000/well) at 4° C. as described previously (22). Competition curves were generated by pre-incubating adherent cells with increasing concentrations of unlabelled complement fragments. The IC50, standard error values and linear regression analyses were obtained by using GraphPad Prism 2.0.

Test [2] addresses T2, CD88 (Homo sapiens, UniProt P21730).
T2 construct: expressed in transfected cells
T2 sequence (P21730 1-350): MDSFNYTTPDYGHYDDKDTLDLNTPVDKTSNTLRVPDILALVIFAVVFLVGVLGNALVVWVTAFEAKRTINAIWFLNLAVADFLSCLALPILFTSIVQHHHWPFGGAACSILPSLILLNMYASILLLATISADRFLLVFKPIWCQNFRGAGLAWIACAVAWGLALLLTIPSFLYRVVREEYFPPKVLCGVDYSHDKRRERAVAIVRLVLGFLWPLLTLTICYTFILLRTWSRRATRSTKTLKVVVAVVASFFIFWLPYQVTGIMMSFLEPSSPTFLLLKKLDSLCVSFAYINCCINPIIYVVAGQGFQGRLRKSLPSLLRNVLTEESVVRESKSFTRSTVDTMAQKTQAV
Put plainly: Radiolabelled ligand competition receptor binding, CD88-transfected RBL cells.
Excerpt: as §1, §2

The target of test [3] is T3, C5L2 (Homo sapiens, UniProt Q9P296).
T3 construct: expressed in transfected cells
T3 sequence (Q9P296 whole entry): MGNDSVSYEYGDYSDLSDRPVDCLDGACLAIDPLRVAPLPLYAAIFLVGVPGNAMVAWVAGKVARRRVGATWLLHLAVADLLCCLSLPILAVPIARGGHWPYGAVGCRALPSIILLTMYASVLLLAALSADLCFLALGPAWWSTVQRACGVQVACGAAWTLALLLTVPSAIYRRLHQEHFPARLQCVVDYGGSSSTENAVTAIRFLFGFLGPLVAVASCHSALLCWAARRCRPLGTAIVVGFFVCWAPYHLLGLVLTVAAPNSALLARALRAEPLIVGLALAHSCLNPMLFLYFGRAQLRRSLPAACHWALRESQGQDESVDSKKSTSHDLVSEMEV
Put plainly: Competition binding with 125I-C3a, C5L2-transfected RBL cells. As to conditions: FIG. 1A. Here is the method: (§3) FIG. 1 illustrates C3a des-Arg^77 and C4a des-Arg^77 bind to RBL cells expressing C5L2. RBL cells transfected with C5L2 were incubated with the stated concentrations of complement fragments for 10 min prior to the addition of 50 pM ^125I-C3a (A) or 50 pM ^125I-C5a (B). Results are the means of n (n shown in Table 1) separate experiments performed in duplicate±S.E.;
as §1
(§4) Competition binding assays were performed using 50 pM ^125I-C5a or ^125I-C3a (NEN) on adherent C5aR-transfected or C5L2-transfected RBL cells in 96-well microtiter plates (55 000/well) at 4° C. as described previously (22). Competition curves were generated by pre-incubating adherent cells with increasing concentrations of unlabelled complement fragments. […]

The target in test [4] is T3, C5L2. Put plainly: Competition binding with 125I-C5a, C5L2-transfected RBL cells. Here is the method: as §3, §1, §4
In test [5] the target is T1, C3aR. Put plainly: Degranulation of C3aR-transfected RBL cells. It is filed as cell-based. As to conditions: RBL cells transfected with C3aR; data not shown. Here is the method:
Cellular activation was measured as the release of -hexosaminidase from intracellular granules (20). In the enhancement of degranulation assay, cells were treated with 1 μg/ml IgE^DNP (21) overnight, then with chemoattractants or peptides for 10 min prior to stimulation with 100 ng/ml DNP-HSA (Sigma) for 15 minutes. EC50 and standard error values were obtained by iterative curve fitting using GraphPad Prism 2.0.

Test [6] deals with T2, CD88. Nature of the test: Degranulation of CD88-transfected RBL cells. It is filed as cell-based. The following applies: RBL cells transfected with CD88; data not shown.
The target of the next test is T4, C5L2+Gα16 (Homo sapiens, UniProt Q9P296).
T4 construct: inferred from the sorting antibody; expressed in transfected cells
T4 sequence (Q9P296 whole entry): as above
It is filed as cell-based. The following applies: C5L2+Gα16 cells after 10 ng/ml PT, FIG. 4D.

The target in test [7] is T3, C5L2. Nature of the test: Degranulation (β-hexosaminidase) and enhancement of IgE-receptor-mediated degranulation, C5L2-transfected RBL cells. It is filed as cell-based. The following applies: enhancement of IgE-mediated degranulation, FIG. 3A.

B1: C4a des-Arg^77 (protein)
chain: NVNFQKAINEKLGQYASPTAKRCCQDGVTRLPMMRSCEQRAARVQQPDCREPFLSCCQFAESLRKKSRDKGQAGLQ
notes: desarginated metabolite of complement fragment C4a
For B1, the IC50 with C3aR [1] came out at 10 µM; in the test with C5L2 [4] (C5L2 (^125I-C5a) expressed in RBL cells, 50 pM radioligand), 17 µM. For the same molecule, the “competition with ^125I-C5a binding to CD88” value in the test with CD88 [2] is “cannot compete effectively”. For the same molecule, the “competition with ^125I-C3a for C5L2 binding” value with C5L2 [3] was “can compete strongly”. In the test with C5L2 [4] (FIG. 1B), the “competition with ^125I-C5a binding to C5L2” value is recorded as “cannot compete effectively”. Further, the stimulation of degranulation entry in the test with C3aR [5] and with CD88 [6] was “neither C3a des-AXg^77 nor C4a des-Arg^77 can stimulate degranulation” throughout.

B2: C4a: complement fragment of C4 (protein)
chain: NVNFQKAINEKLGQYASPTAKRCCQDGVTRLPMMRSCEQRAARVQQPDCREPFLSCCQFAESLRKKSRDKGQAGLQR
B2: the “enhancement of degranulation response to IgE receptor cross-linking” value with C5L2+Gα16 is “inactive”.

B3: C5a des-Arg^74 (protein)
chain: TLQKKIEEIAAKYKHSVVKKCCYDGACVNNDETCEQRAARISLGPRCIKAFTECCVVASQLRANISHKDMQLG
modifications: left off: small tags and cut ends
notes: desarginated metabolite of complement fragment C5a
As to B3, the agonist character entry with C5L2 [7] is “only a partial agonist”.
